According to the RNAGym collection of RNA variant scans (doi:10.1073/pnas.2313332121):

B1: TPR t1 (parent)
chain: GACCAAUCUGCCCUCAGAGCUCGAGAACAUCUUCGGAUGCAGAGGAGGCAGGCUUCGGUGGCGCGAUAGCGCCAACGUCCUCAACCUCCAAUGCAUCCCACCACAUGAUGAUGCCUGAAGAGCCUUGGUUUUUUG

Variants of: B1
Test: polymerase ribozyme fitness, log enrichment relative to wild type (log ratio); higher = more active; in vitro selection for triplet polymerase activity
In short: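 In triplicate, a single round of in vitro selection was run on each mutant library, PCR-built and transcribed, covering one subunit of a heterodimeric triplet polymerase ribozyme. Frozen incubation at −7 °C followed annealing with a biotinylated primer, partner subunit and triplets, and extended constructs were then gel-excised, streptavidin-captured and taken through RT-PCR. Fitness is the logarithm of genotype enrichment over wild-type enrichment, from inverse-variance-weighted replicate averages of Illumina-sequenced inputs and outputs. […] only genotypes with ≥10 input reads and ≥1 read per output were kept.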

Variant	polymerase ribozyme fitness (log ratio)
G47C G77U A100U	-1.79
G47C C62U	-1.21
G47U A100U	-2.31
G47U A100C	-2.83
G47U A66G A118G U130G	-4.13
G47A U87A	-0.715
G47C C72U C85A C99G G110A	-7.27
G47A A50U G61U	-0.935
G47A C56U C73U C101U A119G G120U G127A	-1.08
G47A C123G	0.634
G47A U96A C98G	-6.21
G47C U55G C72G U106A U129A G135C	-2.99
G47C A111G	-2.34
G47A U131C	-1.16
G47C U106A	-1.41
G47C	-1.82
G47U	-1.72
G47A U106A U133A	-1.13
G47C G69A	-4.38
G47C C123G U133A	-0.852
G47C C49G U55G C73G C97A A119G	-5.16

Variant	polymerase ribozyme fitness (log ratio)
G47A G63A C85G	-3.45
G47A U54C U59A	-0.546
G47A C49U G65U G69U C86U G127U	-4.94
G47A U55G C70A C82U	-1.41
G47C A83U	-1.11
G47C C70U G120C	-0.515
G47C G77U C88A C97U G113C G117C	-6.98
G47A C72G G113U G122A G127U	-4.96
G47C C73U C102U G127U	-5.08
G47A U87A U96A	-2.62
G47C G61C	-3.43
G47A C53G C73U C86U	-0.0372
G47C G113A	-2.47
G47A U59C C79G G120A G128A G135U	-5.95
G47A C53A C97A A119G C123A	-4.34
G47A G69A	-3.08
G47A U96A U126C	-3.31
G47C C114U	-3.1
G47A A50U C80A C88U A111G	-4.88
G47A G60C	-1.05
G47A G60U	-0.146

Variant	polymerase ribozyme fitness (log ratio)
G47A G60A	1.12
G47C U81G	-3.84
G47C C79U G93U	-3.38
G47U A95U C101U C104A A111G C123G	-5.49
G47A C64U	-2.13
G47C C49A A111U	-5.94
G47C C80U	-3.51
G47A G61U G120U G127A	-0.871
G47C C102U	-2.99
G47C C73U	-1.61
G47A C76G C114G	-3.13
G47C G52C C73U G120U C123A	-2.99
G47C G110C	-6.05
G47C G110A	-3.26
G47C G110U	-2.81
G47C U78A A105C G120C U130C	-3.11
G47C C56U C73U A105U	-4.05
G47A A119U	-1.02
G47A C56U U112A	0.663
G47A C73A	-0.495
G47A A50G G113A	-2.34

Variant	polymerase ribozyme fitness (log ratio)
G47A U78C G113U	-4.27
G47A C49U G63C	-1.35
G47C C85G	-2.21
G47A C70A C82G	-2.41
G47A G60C G71U A119U	-6.29
G47C C56G	-1.79
G47U A95U A108G C123A	-3.06
G47C U116C	-2.31
G47A C73G U125A G128A	-3.1
G47A C88U C102U	-3.29
G47A C89A	-4.43
G47C C82U C114A	-2.65
G47C G61U C114U	-3.31
G47C C73G U81A	-2.91
G47A U125A	-1.31
G47C A121G	0.606
G47C G93A C124A G127U G135U	-2.23
G47A C86A G113A	-2.16
G47A A50U U81A	-0.591
G47A C53G C85A C89A A91C C94A U116C G120C	-5.21
G47A C85A G117C A121C	-5.39
